{
  "source": "paper PMC6016253",
  "about": "“The ICP27 Homology Domain of the Human Cytomegalovirus Protein UL69 Adopts a Dimer-of-Dimers Structure” (mBio, 2018)",
  "proteins": {"B1": {"name": "UL69long (HCMV UL69 residues 200 to 540) (domain or fragment)", "chain": "GPQQQQMLALIDDELDAMDEDELQQLSRLIEKKKRARLQRGAASSGTSPSSTSPVYDLQRYTAESLRLAPYPADLKVPTAFPQDHQPRGRILLSHDELMHTDYLLHIRQQFDWLEEPLLRKLVVEKIFAVYNAPNLHTLLAIIDETLSYMKYHHLHGLPVNPHDPYLETVGGMRQLLFNKLNNLDLGCILDHQDGWGDHCSTLKRLVKKPGQMSAWLRDDVCDLQKRPPETFSQPMHRAMAYVCSFSRVAVSLRRRALQVTGTPQFFDQFDTNNAMGTYRCGAVSDLILGALQCHECQNEMCELRIQRALAPYRFMIAYCPFDEQSLLDLTVFAGTTTTTA", "notes": "UL69 of human cytomegalovirus (HCMV), 744 amino acids; residues 200 to 540: ICP27 homology domain plus an N-terminal region conserved only in betaherpesviruses; gene synthesis, codon optimized; HRV3C protease-cleavable N-terminal thioredoxin tag plus Strep-tag; also called UL69 tetramer; not shown: thioredoxin, N-terminal, cleaved"}, "B2": {"name": "UL69short (HCMV UL69 residues 248 to 536) (domain or fragment)", "chain": "PSSTSPVYDLQRYTAESLRLAPYPADLKVPTAFPQDHQPRGRILLSHDELMHTDYLLHIRQQFDWLEEPLLRKLVVEKIFAVYNAPNLHTLLAIIDETLSYMKYHHLHGLPVNPHDPYLETVGGMRQLLFNKLNNLDLGCILDHQDGWGDHCSTLKRLVKKPGQMSAWLRDDVCDLQKRPPETFSQPMHRAMAYVCSFSRVAVSLRRRALQVTGTPQFFDQFDTNNAMGTYRCGAVSDLILGALQCHECQNEMCELRIQRALAPYRFMIAYCPFDEQSLLDLTVFAGTT", "notes": "UL69 of human cytomegalovirus (HCMV), 744 amino acids; residues 248 to 536: ICP27 homology domain only; gene synthesis, codon optimized; HRV3C protease-cleavable N-terminal thioredoxin tag plus Strep-tag; not shown: thioredoxin, N-terminal, cleaved"}},
  "target": "the molecule itself",
  "test": "SEC-MALS; 0.5 ml at 1 mg/ml on Superdex 200 10/300 GL, 0.75 ml/min; 20 mM HEPES, 150 mM NaCl, 50 mM L-Arg, 50 mM L-Glu, 1 mM TCEP, pH 7.9",
  "data": [
    {"protein": "B1", "values": [
      {"measurement": "stoichiometry N", "value": 4}
    ]},
    {"protein": "B2", "values": [
      {"measurement": "stoichiometry N", "value": 2}
    ]}
  ]
}
